Data reported in publication PMC6987092, “Characterization and diversity of the complete set of GH family 3 enzymes from Rhodothermus marinus DSM 4253” (Scientific Reports, 2020).

B1: RmBgl3B (Rhodothermus marinus DSM 4252) (protein)
chain: QSSRVDSLLAAMTLAEKISLLHGAIDPTGEAGAGYVPGVPRLGIPAMRLTDGPAGIRTRHPATALPAPVALAASFDPELAYRYGHVMGIEGRARRHEVLLSPMVNIVRVPEAGRNFETFSEDPLLSAEMVAAEVRGIQDAGMMATVKHYVANNFENDRMRVNVVVDERTLREIYLPGFEAAIKAGAAAVMCAYNRVNGPYACDNEMLLTDILRDEWGFEGWVMTDWFAGHSLESLVRGLDQEMPGYTIPFSSPDMPLAPAVFADSLLAAVESGRIDEAYVDRAVRRILVQMEQFGLLDGESTPPEINIEAHAAVAREVAEAGAVLLRNENQTLPLSERDLQHLVVIGPTATRPLIGGGGSSRVQPFRTTSTLAALQELAGPQAQIRYVPGIDLDGMPVPSSALRTPDGQPGLLRQGADGTTQVDAQLDFTGERALPPGSQWTWTGTLTAPTAGVYELKLQTAGGVGTLSIDGQPVLRTGMFFSDASLIPTADSLENATYRIELQAGQQLSLTVQISGQVPSLPFLPAGQNPVQVRLAWVTPERRAAFLEEAAEAARAAHAAIVFVYEEGTEGRDRETLALRPDQDALVEAVAAANPRTTVVMNVGAPTLMPWAERVGAILLMWYPGQEGGWATADVLLGRANPAGRLPVTFPRRAEDAPTASPERYPGVDLTARYDEGIFVGYRWYDAQQIEPLFPFGHGLSYTTFAYENLRVEPDGDGFVVRFVVRNTGDRAGSDVPQVYLGPPENPPVPMAVRQLVGFRRVTLAPGEAQEVTVRIDGRALSYWSVEDHAWVKATGRRTLYVGASARDLRLQTEIDVQ
notes: recombinant in E. coli BL21 C43 (pET-21b(+)), signal peptide removed, C-terminal His-tag; locus tag is that of the type strain DSM 4252T homolog, gene cloned from DSM 4253
B2: RmBgl3C (Rhodothermus marinus DSM 4252) (protein)
chain: CQKAEQQPPSTAAFPPLSSYDEQARALLEQMTLEEKIGQMIQAEQAFLQDPYDIQTYHLGSILSGGNSDPADGNSLEAWTEVYDSLQAIALRTRLGIPLLYGIDAVHGHSNVEGAVVFPHHIGLGATRDPDLVERVYRITAIEMRATGIHWNFAPCIAVARDERWGRTYESFSEDPELVATLGAAAVRGLQNGGLNNPLAVLATAKHFAGDGGTAFGTGGPQGALLDQGDVRLDEATFRRIHVRPYIDAIQAGVGSIMVSYSSWNGVKMTGHKYMLTDVLKGELGFEGIVISDYNAIDQVHPDYKTAIEIAINAGIDMAMVPTRYREFFQLLKELVEEGRVPMERIDDAVLRILRVKFAMGLMDGPEHVFADRSLWAKFGSAEHRAVAREAVRKSLVLLKNENQTLPLAKDLGRIHVAGLHADNLGYQAGGWTIDWQGGSGDITEGTTILEAIRKAVAPGTEVTYSEDGSGAAGADVAIAVIGERPYAEFLGDRSDLSLDPDDVAVVRRLKEAGVPVVVILISGRPMIINDVLEMADAFIAAWLPGSEGDGVADVLFGDYAPTGKLPFSWPRSMDQIPINVGDEDYDPLFPFGYGLTY
B3: RmXyl3A (Rhodothermus marinus DSM 4252) (protein)
chain: QERPAYLDPTLPIEVRVEDLLGRMTLEEKVAQMLSMRQTKRLIVDEQNRFDPSRAPEWFKLGIGRIERPSEYFQTAREAAAFTNAIQRWVRENTRLGIPVIFHEEALHGLRAAEATSYPQAIALASTWNPALVERVYGRIAREVRARGVHQVLAPVVDVGREPRWGRIEETFGEDPYLVAEMGKAAVWGLQGRRVPPVGPGHVIATLKHMAGHGQPESGINVAPVFFGERHLREVFLYPFREAVEKAHALSVMASYNEIDGIPSHANAWMLRDVLRGEWGFRGVIVSDWHGIPQLITRHHVAENLEEAARLALQATVDVELPDYEAYATLVDQVRRGLIPELAVDEAVRRLLWAKFAVGLFDGEPYVDEAEASRVNASEEDRALALEAAREAIILLKNDGLLPLEAGRLDRVAVIGPHAGEVLLGGYSGRPRYTVSILEGLRERLRGEAEVLYAEGVRITEDSVFTDEPQPHLGGTWARQRNAAHRVVFTPPEANRSRIEEAVALARTSDVVVLVVGGNEQTAREAYAPYHLGDRLSLRLPGQQEELVKAVLATGVPVVLVVIGGRPYVITELVDRVGAIVWGWYLGQETGRAVAEVLLGDYNPAGRLPITIPRHEGQLPAYYSHKPSKELDYVDGTSRPLFPFGYGLSYTRFAYRSVRLEPDRVGGCGVVRVLVELENVGDRAGDEVVQVYVRDRVSSVARPVKELKGFRRVHLGPGERKVVEIELGPEAFAFYGLEMERVVEAGWFDVLVGGNSEELISVPLEITEGCNLGR
notes: locus tag is that of the type strain DSM 4252T homolog, gene cloned from DSM 4253
B4: RmNag3 (Rhodothermus marinus DSM 4252) (protein)
chain: HRSELDTAPPDRTRPGAWTETQLRTLTLAQQIGQLFAVRARGVFQSVDDPDYRELVRLVEQFQVGGVIFFQGDPYSQAMLANELQRRSRLPLLIAQDTEWGVAMRVRRTTSFPRAMAIGATGNPDYAYAVGYVTAREARALGVHQLYAPVADVNNNPMNPIINVRAFGEDPLQVATMVRAFVRGVQDAGAIATAKHFPGHGDTSIDSHSDLPVLRFDRKRLDTLELVPFRAAIKAGVQSIMTGHLALPRLDPTPNLPASLSRRITHELLREELGFDGLVVTDALEMQGVTKHFGVGEAAVRALEAGADMLLLSEDVEAARSAILQAVAQGRLSRARIEASVRRILLAKERLGLHRERLVDLNAIPYVVGIAPHQALSQTIARASLTLLRNEGNLLPLPDVPATPRQLQVIILSDSDDPATGRFFVQTLREIAPDDRIASRLLDVRSHPDDYRAALEAAARADVVLVPAYLFVRSGTGRIRLPERQRTFLDALIAQGRPVVLIAFGNPYLIMDLQRPPAVYLAAYGGSESTQRAAVQAIFGQAPFTGRLPITIPGHFQRGDGLQLEQVAPRLAYPEEVGMSTQRLYRVDSLLRAAIADSAFPGAAVAIGRGPAIVWLKGYGHFTYTSDQRVTPSSVFDLASLTKVVVTTTAAMQLYEAGKLDLDAPVVRYLPEFGQNGKERVTIRQLLSHTAGLAPFHPFHRMGITTAEAVRQAILSDSLIYEPGTQSRYSDLGMIVLGWVIERITGQPLDRYAAEHIFRPLGMRHTGFRPVGRPDTTVVPTEIDTIFRHRLIQGEVHDETAWILGGVAGHAGLFSTAEDLARFAYMLVNEGRIGGRPFLKPETIRLFTTPVDPERAGTRALGWDTRSREGYSSAGRLFGSRSFGHTGFTGTSIWIDPDQQLFVILLTNRVYPTRENRKHLAVRARLADLAYEALIGPPTLNLNALLP
notes: recombinant in E. coli BL21 C43 (pJOE3075), signal peptide removed, C-terminal His-tag, includes beta-lactamase domain; locus tag is that of the type strain DSM 4252T homolog, gene cloned from DSM 4253
B5: RmBgl3A (Rhodothermus marinus DSM 4252) (protein)
chain: MRTLRLLTLSLLWSGWLLPAIAQVDRAREDSLIEALLARMTLEEKLGQLTLYNGGMAETGPVVREGEPDAIRRGRVGAVMNFFGAEAVCAMQRQAVEESRLGIPLLFALDVIHGFRTIFPVPLAEAATFDPALVEQAARVAAGEASAVGLNWTFAPMVDIARDARWGRIVEGSGEDPYLGAVMAAARVRGFQGRDLRDPTTILATAKHFAAYGAAEAGRDYNTVDVSERTLREVYLPPFEAAVRAGALSIMSAFNEIGGVPATADRWLLTDVLRHEWGFEGLVVSDYTSVWELLFHGIAADSAEVGRKALEAGVDMDMVSGIYVRKLAEEVRAGRLSEAVVDEAVRRVLRVKYRLGLFEDPYRYCRDASREQVLLSPAHRRLAREVARKAIVLLKNEGELLPLADTLQRVAVIGALANDSASVLGPWAAAGRPEDAVTILEGIRAALPGATVRYAPGYAEVPSGSFQEMVAAALSPDTSGFAEAEAVARWAEVVILVLGEHRELSGEAASRASVELPGVQLALAWRLLALGRPVVVVLMNGRPLAIPELAASAPAIVEAWFLGTEMGHAVADVLLGKASPGGRLPVSFPRATGQEPLYYNHKPTGRPPRAEEKYTSKYVDVPWTPLYPFGYGLTYTTFAYDSLRLSRRRLGLDDTLEVVVSVTNTGRRRGEEVVQLYVRDEVASVTRPVKELKGFARVELAPGETKAVQFRLPVRALRFWGLEGGWVVEPGWFTLWVGPSSAEGLQARFEVVSP
notes: recombinant in E. coli BL21 C43 (pJOE3075), C-terminal His-tag, no signal peptide predicted; locus tag is that of the type strain DSM 4252T homolog, gene cloned from DSM 4253

Tests used:
RmXyl3B = biological target: T1, RmXyl3B (Rhodothermus marinus, UniProt D0MHL5); experiment: pNP release at […] nm; assay type: biochemical; details: 20 mM citrate phosphate pH 5.6, 60 °C
T1 construct: gene Rmar_1081; locus tag is that of the type strain DSM 4252T homolog, gene cloned from DSM 4253

purified protein [1] = substrate: O=[N+]([O-])c1ccc(O[C@@H]2OC[C@@H](O)[C@H](O)[C@H]2O)cc1; experiment: purified protein; assay type: biochemical, Rhodothermus marinus; details: 20 mM citrate phosphate pH 5.6, 60 °C
purified protein [2] = substrate: O=[N+]([O-])c1ccc(O[C@@H]2O[C@H](CO)[C@@H](O)[C@H](O)[C@H]2O)cc1; experiment: purified protein; details: 20 mM citrate phosphate pH 5.6, 60 °C
purified protein [3] = substrate: CC(=O)N[C@H]1[C@H](Oc2ccc([N+](=O)[O-])cc2)O[C@H](CO)[C@@H](O)[C@@H]1O; experiment: purified protein; assay type: biochemical, Rhodothermus marinus; details: 20 mM sodium phosphate buffer, 60 °C

T1 sequence (D0MHL5 entry or part of it): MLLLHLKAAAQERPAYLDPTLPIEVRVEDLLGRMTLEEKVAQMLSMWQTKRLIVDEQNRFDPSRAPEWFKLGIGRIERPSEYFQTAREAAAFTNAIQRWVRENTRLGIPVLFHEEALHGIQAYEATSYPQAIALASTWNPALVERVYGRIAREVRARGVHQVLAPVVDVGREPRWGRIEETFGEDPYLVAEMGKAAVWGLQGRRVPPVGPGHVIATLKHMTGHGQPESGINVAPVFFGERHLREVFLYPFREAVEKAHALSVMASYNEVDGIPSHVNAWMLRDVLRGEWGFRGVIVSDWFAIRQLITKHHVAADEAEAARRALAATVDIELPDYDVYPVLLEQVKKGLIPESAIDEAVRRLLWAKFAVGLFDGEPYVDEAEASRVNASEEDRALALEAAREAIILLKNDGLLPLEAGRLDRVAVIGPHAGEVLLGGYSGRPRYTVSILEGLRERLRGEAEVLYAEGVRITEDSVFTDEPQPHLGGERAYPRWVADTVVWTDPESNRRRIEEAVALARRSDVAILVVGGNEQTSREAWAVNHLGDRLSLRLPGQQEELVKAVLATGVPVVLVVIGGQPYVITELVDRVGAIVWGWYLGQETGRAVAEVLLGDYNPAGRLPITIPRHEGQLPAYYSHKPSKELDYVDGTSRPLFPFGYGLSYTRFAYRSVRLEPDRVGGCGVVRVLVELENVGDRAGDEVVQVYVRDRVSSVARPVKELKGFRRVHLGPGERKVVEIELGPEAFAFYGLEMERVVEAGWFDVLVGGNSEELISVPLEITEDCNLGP

| Km (RmXyl3B) [µM] | Molecule | Km (purified protein [1]) [µM] | kcat (purified protein [1]) [s⁻¹] | kcat/Km (purified protein [1]) [M⁻¹ s⁻¹] | Km (purified protein [2]) [µM] | kcat (purified protein [2]) [s⁻¹] | kcat/Km (purified protein [2]) [M⁻¹ s⁻¹] | Km (purified protein [3]) [µM] | kcat (purified protein [3]) [s⁻¹] | kcat/Km (purified protein [3]) [M⁻¹ s⁻¹] |
| --- | --- | --- | --- | --- | --- | --- | --- | --- | --- | --- |
| 300 | O=[N+]([O-])c1ccc(O[C@@H]2OC[C@@H](O)[C@H](O)[C@H]2O)cc1 [pNP-β-Xyl] |  |  |  |  |  |  |  |  |  |
| 1600 ± 400 | O=[N+]([O-])c1ccc(O[C@@H]2O[C@H](CO)[C@@H](O)[C@H](O)[C@H]2O)cc1 [pNP-β-Glc] |  |  |  |  |  |  |  |  |  |
|  | B1 | 1200 ± 100 | 65.8 ± 0.4 | 56200 ± 700 | 100 ± 0 | 49.5 | 511000 |  |  |  |
|  | B2 |  |  |  | 1600 ± 900 | 67.2 | 42900 |  |  |  |
|  | B3 | 400 ± 0 | 50.1 ± 1.9 | 140000 ± 15700 | 6500 ± 800 | 29.2 | 4500 |  |  |  |
|  | B4 |  |  |  |  |  |  | 100 ± 0 | 102 ± 3 | 1.31e+06 ± 50300 |
|  | B5 | 11800 ± 1000 | 140.8 ± 0.6 | 12000 | 100 ± 0 | 79.9 | 755000 |  |  |  |
